Assay results from patent publication US20140057833A1 (TEMPLE UNIVERSITY OF THE COMMONWEALTH SYSTEM OF HIGHER …, published 2014).
Non-standard residues stand in square brackets, D forms with d. No end group written: not given here. βAla = NCCC(=O)O

Biological target: T1, AdipoR1 (UniProt Q96A54 1-375, limits assumed)
T1 sequence (looked up): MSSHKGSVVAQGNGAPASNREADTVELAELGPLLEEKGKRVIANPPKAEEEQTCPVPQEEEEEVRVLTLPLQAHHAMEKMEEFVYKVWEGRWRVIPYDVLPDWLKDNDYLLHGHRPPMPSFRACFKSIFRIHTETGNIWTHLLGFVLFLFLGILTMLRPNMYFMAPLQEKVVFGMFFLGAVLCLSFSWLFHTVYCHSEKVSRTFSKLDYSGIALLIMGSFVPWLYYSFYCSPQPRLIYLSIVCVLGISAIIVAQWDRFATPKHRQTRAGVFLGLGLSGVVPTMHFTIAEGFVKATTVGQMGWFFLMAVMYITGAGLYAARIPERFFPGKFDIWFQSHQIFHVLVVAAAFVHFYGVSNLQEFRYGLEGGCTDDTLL
Experiment: cell-based or functional assay

Molecule | MCF-7 cell growth restriction at 50 ng/mL [%] | MCF-7 cell proliferation inhibition at 50 ng/mL relative to untreated controls [%]
globular adiponectin (gAd) (from UniProt Q15848 108-244) (ligand) | 18 | 
NIPGLYYFAY[βAla]-NH2 (N-terminus assumed; SMILES CC[C@H](C)[C@H](NC(=O)[C@@H](N)CC(N)=O)C(=O)N1CCC[C@H]1C(=O)NCC(=O)N[C@@H](CC(C)C)C(=O)N[C@@H](Cc1ccc(O)cc1)C(=O)N[C@@H](Cc1ccc(O)cc1)C(=O)N[C@@H](Cc1ccccc1)C(=O)N[C@@H](C)C(=O)N[C@@H](Cc1ccc(O)cc1)C(=O)NCCC(N)=O) [ADP 25-β-AlaNH2] |  | 20
